Reference: patent publication US20040176567A1, “Modified calcitonin” (priority 2001, published 2004)
Marks after values point to notes of the source that are not given here. Bridge positions count the residues as written; N and C are the ends. Ends that are not written are not given here.

What was measured:
[1] = Secondary structure (helical content) by circular dichroism; format: physicochemical; conditions: for Helical content compared with hCT: neutral and low pH (7.0 and 3.0); for Helical content by CD: neutral pH (7.0), 25° C., ellipticity at 222 nm
Method: FIG. 2. Secondary structure of calcitonin peptides measured by circular dichroism. Experiments reflect the thermal denaturation profile of the peptides at pH 7.0 and 3.0 respectively. Ellipticity was measured at 222 nm and reflects the α-helical content of the peptides. Helical content based on CD spectra calculations (25° C.) according to Chen et al. (1974). Biochemistry 13, 3350-59.
Circular dichroism and Nuclear magnetic resonance were used to characterise the structural properties of human (hCT), salmon (sCT) and 6 chR (6 chR) calcitonin. Peptide concentration was estimated by amino acid analysis.

T47D (HTB 133) cells = assay: Calcitonin activity by cyclic AMP intracellular accumulation; format: cell-based, Human; conditions: for cAMP stimulation compared with basal levels: saturation concentration 1·10^−6 M, 15 min at 37° C., T47D cells
Text: Activity tests may be carried out in suitable animal models using, for example chickens or mice. Activity can also be monitored in vitro, for example in cellular cultures. LLC-PKI kidney cells may be used, for which calcitonin has been reported to increase alkaline phosphatase activity and cAMP levels Wohlwend A et al (1985) Biochem Biophys Commen 131 537-542, Miyamoto K. I. et al (1998) Jpn. J. Pharmacol 76.193-198. […] We used a combination of two previously described systems with some modifications (Zimmerman, U. et al, 1997, J. Endocrinol. 155, 423-431; Miyamoto, K. I. et al, 1998, Jpn. J. Pharmacol 76, 193-198). Human ductal carcinoma T47D (HTB 133) cells were used for the assays.
T47D (HTB 133) cells were purchased from the American Type Culture Collection (ATCC) and grown in RPMI-1640 modified medium (ATCC) containing 2 mM L-glutamine, 10 mM HEPES, 1 mM sodium pyruvate, 4.5 g/L glucose and 1.5 g/L sodium bicarbonate. This medium was supplemented with 10% heat-inactivated fetal calf serum, 25 μg/mL gentamycin and 100 nM dexamethasone, this last to enhance the expression of calcitonin receptors. Cells were grown in a humidified atmosphere of 95% air-5% CO2 at 37° C.
Cyclic AMP (cAMP) accumulation was used to measure the degree of stimulation upon incubation in the presence of different calcitonin peptides. Typically cells were grown in multi-well plates until confluency was reached and then washed with pre-heated DPBS-glucose (Gibco, Invitrogen) to remove any traces of fetal serum. Sample solutions were prepared by dissolving different amounts of hCT, sCT and 6 chR (6 CT) in DPBS-glucose supplemented with 0.1% BSA and 1 mM IBMX (3-isobuthyl-1-methylxanthine). After being washed, cells were incubated for 15 min at 37° C. in the presence of the peptide solutions. Medium was then removed by aspiration and cells were rapidly frozen on dry-ice and then kept at −80° C. until cAMP measurements were carried out.
Cyclic AMP content of different samples was measured using a commercial AMP enzyme immunoassay (EIA) system (Biotrak, Amersham-Biotech) according to manufacturer's specifications. Different dilutions of cellular extracts were measured in order to cover the whole range of stimulation caused by calcitonin incubation. Saturation concentrations (1·10^−6 M) of the three peptides (hCT, sCT & 6chR) were used to establish the maximum capacity of stimulation for each one of the different sequences. […] All three peptides show clear stimulation effects confirming the calcitonin-like activity of the engineered 6 chR (6 CT) peptide.

[2] = Aggregation studies, turbidity at 340 nm; format: physicochemical; conditions: for Aggregation time (turbidity at 340 nm) / Aggregation time (development of turbidity at 340 nm) / Aggregation time (half time, turbidity at 340 nm): 37° C., pH 7.2
Method: Aggregation analysis was carried out as reported previously (Arvinte, T. et al., 1993, J. Biol. Chem, 268, 6415-6422) using PBS 5 mM sodium phosphate, 145 mM NaCl, pH 7.2. (sodium phosphate saline buffer) pH 7.2 and adding a minor amount of sodium azide to prevent bacterial growth (0.1%). Samples were always incubated at 37° C.
Aggregation was monitored by measuring turbidity at 340 nm. Different concentrations of peptide were tested.

[3] = biological target: calcitonin receptors on human ductal carcinoma T47D (HTB 133) cells (human) (UniProt P30988); assay: cell-based or functional assay; conditions: scale: orders of magnitude compared with the basal levels
Sequence of UniProt P30988 (P30988 25-474, stated change not applied): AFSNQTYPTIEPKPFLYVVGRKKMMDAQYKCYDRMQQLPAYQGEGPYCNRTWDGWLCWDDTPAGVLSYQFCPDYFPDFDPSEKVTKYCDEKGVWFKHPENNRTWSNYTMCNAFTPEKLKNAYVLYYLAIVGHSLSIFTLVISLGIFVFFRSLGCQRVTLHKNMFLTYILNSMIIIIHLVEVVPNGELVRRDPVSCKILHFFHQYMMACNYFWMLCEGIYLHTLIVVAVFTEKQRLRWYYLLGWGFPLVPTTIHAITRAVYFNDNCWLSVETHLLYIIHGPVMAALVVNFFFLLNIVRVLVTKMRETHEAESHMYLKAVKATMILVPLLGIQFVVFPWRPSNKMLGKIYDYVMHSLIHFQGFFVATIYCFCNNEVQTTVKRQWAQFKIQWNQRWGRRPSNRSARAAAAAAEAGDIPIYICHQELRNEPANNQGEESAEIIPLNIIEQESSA

In the case of “CGNLSTCMLGKLTQELRKLHTFPQTAIGVGAP (disulfide 1-7; ends not checked) [6chR]”, the “Helical content compared with hCT” value [1] is reported as “enhanced helical content”, the “Helical content by CD” value [1] is reported as 21.1% and the “cAMP stimulation effect compared with hCT and sCT” value (T47D (HTB 133) cells; 1·10^−6 M, T47D cells (FIG. 3)) is reported as “clearly higher than that of the hCT and even the sCT peptide”. For the same substance, the “cAMP stimulation compared with basal levels” value (T47D (HTB 133) cells) was “close to three orders of magnitude”, the “Time required to aggregate relative to the human peptide” value [2] was “at least two orders of magnitude larger” and the “Aggregation time (turbidity at 340 nm)” value ([2]; 1 mg/mL filtered 0.5 μm, no aggregation detected at the end of the experiment) was “(>10 months)^c”. For the same substance, the “Aggregation time (turbidity at 340 nm)” value ([2]; 10 mM (~35 mg/mL) unfiltered) was 18 days, the “Aggregation time (turbidity at 340 nm)” value ([2]; 10 mg/mL filtered 0.5 μm, no aggregation detected at the end of the experiment) was “(>10 months)^c” and the “Aggregation time (turbidity at 340 nm)” value ([2]; 10 mg/mL unfiltered, no aggregation detected at the end of the experiment) was “(>10 months)^c”. The “Aggregation behaviour compared with human calcitonin (FIG. 1)” value ([2]; 35 mg/mL, solutions not filtered) was “aggregates much more slowly than the human form” and the “Time without detectable aggregation” value ([2]; concentrations of 10 mg/mL or below, unfiltered and filtered solutions) was over 10 months.

For “CGNLSTCMLGTYTQDFNKFHTFPQTAIGVGAP [Human, reference compound]”, the “Helical content by CD” value [1] was 11.3%, the “cAMP stimulation compared with basal levels” value (T47D (HTB 133) cells) was “close to three orders of magnitude” and the “Aggregation time (development of turbidity at 340 nm)” value ([2]; 1 mg/mL filtered 0.5 μm) was “˜45 days”. For the same substance, the “Aggregation time (half time, turbidity at 340 nm)” value ([2]; 10 mM (~35 mg/mL) unfiltered) was 4 h, the “Aggregation time (development of turbidity at 340 nm)” value ([2]; 10 mg/mL filtered 0.5 μm) was “˜26 days” and the “Aggregation time (half time, turbidity at 340 nm)” value ([2]; 10 mg/mL unfiltered) was “˜30 hours”.

In the case of “CSNLSTCVLGKLSQELHKLQTYPRTNTGSGTP [Salmon-1]”, the “Helical content compared with hCT” value [1] is reported as “higher helical content than hCT”, the “Helical content by CD” value [1] is reported as 22.5% and the “cAMP stimulation compared with basal levels” value (T47D (HTB 133) cells) is reported as “close to three orders of magnitude”.

Work on “salmon calcitonin (from UniProt P01263 83-114) (peptide)” yielded an intracellular cAMP accumulation in T47D cells, peptide at saturation concentration 1·10^-6 M, 15 min, cAMP EIA [3] of 3.
